Measurements reported in US20230272011A1 (AVACTA LIFE SCIENCES, published 2023).

Key:
rabbit serum albumin = rabbit serum albumin (rabbit, UniProt P49065 25-608); assay: binding ELISA on coated albumin, pH 7.4, panel 'Rabbit SA Binding at pH 7.4' (Table 6 gives NA for this pair)
Description: (§1) Briefly, ELISA was performed as follow:
(§2) Human (Sigma-Aldrich); Cynomolgus and Mouse (Abcam); Equine (Abcam); Canine (Abcam); Mouse (Sigma-Aldrich); Rabbit (Sigma-Aldrich); Porcine (Sigma-Aldrich);, and Rat (Sigma-Aldrich) serum albumin were coated overnight on 96 well plates (Corning Costar) at 1 μg/ml in PBS at the appropriate pH (pH 6.0 or 7.4). Plates were saturated using 5% Casein (Sigma-Aldrich) buffer in PBS. […] Plates were then washed and AFFIMER® proteins were detected using a biotinylated polyclonal antibody anti-Cystatin (R&D System) for 90 minutes. After washing, streptavidin-HRP (Thermo Fisher Scientific) was added and incubated for 30 minutes.

human serum albumin [1] = biological target: T1, human serum albumin (human, UniProt P02768 25-609); assay: binding ELISA on coated albumin, pH 6.0, panel 'HSA Binding at pH 6.0'
T1 construct: mature; Bought protein; biotinylated in the Octet and HTRF assays; also called HSA; HuSA
Description: as §1, §2

cynomolgus serum albumin [2] = biological target: T2, cynomolgus serum albumin (cynomolgus); assay: binding ELISA on coated albumin, pH 6.0, panel 'CSA Binding at pH 6.0'
T2 construct: also called CSA; cyno serum albumin
T2 sequence (A2V9Z4 25-608): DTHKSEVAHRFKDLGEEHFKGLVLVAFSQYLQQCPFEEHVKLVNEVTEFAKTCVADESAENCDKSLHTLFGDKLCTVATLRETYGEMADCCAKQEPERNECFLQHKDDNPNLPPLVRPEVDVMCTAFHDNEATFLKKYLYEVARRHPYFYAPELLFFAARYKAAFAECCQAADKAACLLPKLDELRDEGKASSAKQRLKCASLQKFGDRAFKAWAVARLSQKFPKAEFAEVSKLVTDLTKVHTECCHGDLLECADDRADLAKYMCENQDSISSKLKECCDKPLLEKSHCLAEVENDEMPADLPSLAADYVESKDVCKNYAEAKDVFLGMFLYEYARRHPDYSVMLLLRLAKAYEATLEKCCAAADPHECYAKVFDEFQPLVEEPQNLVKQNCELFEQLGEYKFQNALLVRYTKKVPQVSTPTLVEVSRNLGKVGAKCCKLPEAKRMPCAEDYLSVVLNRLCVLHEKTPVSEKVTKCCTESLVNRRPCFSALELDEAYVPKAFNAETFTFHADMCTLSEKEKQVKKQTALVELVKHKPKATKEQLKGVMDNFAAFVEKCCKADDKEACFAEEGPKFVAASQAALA
Description: as §1, §2

porcine serum albumin = porcine serum albumin (porcine, UniProt P08835 25-607); assay: binding ELISA, coated albumin, pH 7.4
Chain of porcine serum albumin (P08835 25-607 limits assumed): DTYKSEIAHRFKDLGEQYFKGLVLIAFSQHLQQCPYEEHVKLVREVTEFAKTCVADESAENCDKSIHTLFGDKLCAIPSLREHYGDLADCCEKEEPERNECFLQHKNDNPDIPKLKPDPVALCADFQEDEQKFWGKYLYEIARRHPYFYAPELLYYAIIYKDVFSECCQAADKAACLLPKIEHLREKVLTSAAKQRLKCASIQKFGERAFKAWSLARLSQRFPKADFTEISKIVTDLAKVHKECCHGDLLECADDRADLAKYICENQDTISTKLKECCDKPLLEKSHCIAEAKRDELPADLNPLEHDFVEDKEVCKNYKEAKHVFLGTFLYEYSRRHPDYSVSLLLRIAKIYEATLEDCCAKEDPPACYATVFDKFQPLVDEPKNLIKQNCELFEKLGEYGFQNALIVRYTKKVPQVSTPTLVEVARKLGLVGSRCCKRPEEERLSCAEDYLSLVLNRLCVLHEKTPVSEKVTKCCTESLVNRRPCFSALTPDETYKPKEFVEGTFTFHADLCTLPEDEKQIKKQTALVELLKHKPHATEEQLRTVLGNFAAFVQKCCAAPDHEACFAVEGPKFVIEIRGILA
Description: as §1, §2

cynomolgus serum albumin [3] = biological target: T2, cynomolgus serum albumin; assay: binding ELISA, coated albumin, pH 7.4
Description: as §1, §2

human serum albumin [4] = biological target: T1, human serum albumin; assay: binding ELISA, coated albumin, pH 7.4
Description: as §1, §2

rat serum albumin [5] = biological target: T3, rat serum albumin (rat, UniProt P02770 25-608); assay: binding ELISA, coated albumin, pH 7.4
T3 sequence (P02770 25-608 limits assumed): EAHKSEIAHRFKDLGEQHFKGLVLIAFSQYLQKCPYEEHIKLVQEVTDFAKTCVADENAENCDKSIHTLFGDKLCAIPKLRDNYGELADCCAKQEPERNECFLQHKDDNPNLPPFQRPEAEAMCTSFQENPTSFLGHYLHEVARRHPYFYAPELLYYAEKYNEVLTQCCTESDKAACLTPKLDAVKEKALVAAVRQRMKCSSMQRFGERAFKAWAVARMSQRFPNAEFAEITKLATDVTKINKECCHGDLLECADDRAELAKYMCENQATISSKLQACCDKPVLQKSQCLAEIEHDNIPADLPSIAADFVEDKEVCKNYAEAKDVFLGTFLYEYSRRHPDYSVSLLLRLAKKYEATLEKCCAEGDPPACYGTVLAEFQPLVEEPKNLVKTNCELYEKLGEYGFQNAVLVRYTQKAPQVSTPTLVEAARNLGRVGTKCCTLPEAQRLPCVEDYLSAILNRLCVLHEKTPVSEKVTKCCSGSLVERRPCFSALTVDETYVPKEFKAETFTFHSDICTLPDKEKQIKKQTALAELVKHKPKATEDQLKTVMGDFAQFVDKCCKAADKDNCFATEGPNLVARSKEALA
Description: as §1, §2

recombinant FcRn = biological target: T4, recombinant FcRn (Homo sapiens (Human), UniProt P55899 24-297; P61769 21-119, Biotinylated (site and any tag carrying the biotin are not stated); captured on a Biotin CAPture chip.); assay: Biacore, biotinylated FcRn on Biotin CAPture chip, PBS-T pH 6.0
T4 construct: Captured on a Biotin CAPture chip; also called biotinylated FcRn (Amsbio); copies: 1 + 1
T4 sequence (P55899 24-297 limits assumed, chain 1 of 2): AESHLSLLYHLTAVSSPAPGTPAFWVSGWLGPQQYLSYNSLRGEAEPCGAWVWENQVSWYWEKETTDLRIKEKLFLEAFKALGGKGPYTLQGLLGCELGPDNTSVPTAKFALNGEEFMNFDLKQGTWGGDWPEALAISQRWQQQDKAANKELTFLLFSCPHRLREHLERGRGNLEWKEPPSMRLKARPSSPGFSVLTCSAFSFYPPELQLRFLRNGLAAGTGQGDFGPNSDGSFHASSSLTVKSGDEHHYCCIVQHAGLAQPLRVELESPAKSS
T4 sequence (P61769 21-119 limits assumed, chain 2 of 2): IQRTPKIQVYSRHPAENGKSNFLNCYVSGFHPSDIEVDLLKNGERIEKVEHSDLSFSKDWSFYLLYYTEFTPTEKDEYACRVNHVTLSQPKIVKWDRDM
Description: FcRn Biacore binding analysis was performed using Biotin CAPture chip according to the manufacturer's protocol (GE Healthcare). Briefly, Biotin CAPture reagent was run for 300 sec at a 2 μl/min flow rate over surfaces Fc1 and Fc2 followed by the capture of biotinylated FcRn (Amsbio) at 10 μg/mL with a contact time of 50 seconds, run at 10 μl/min delivered to Fc2 only. […] Surface Fc1 and Fc2 regeneration was performed according to the manufacturer's protocol.

cynomolgus serum albumin [6] = biological target: T2, cynomolgus serum albumin; assay: BLI (Octet), biotinylated albumin on SA sensor, pH 6.0
Summary of the method: (§3)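 Affinity is measured against albumin captured at 1 μg/ml on streptavidin tips, in PBS-T (0.01% Tween 20) plus 1% casein at the stated pH, at 25° C.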

mouse serum albumin [7] = biological target: T5, mouse serum albumin (mouse, UniProt P07724 25-608); assay: as above
T5 construct: also called MSA
T5 sequence (P07724 25-608 limits assumed): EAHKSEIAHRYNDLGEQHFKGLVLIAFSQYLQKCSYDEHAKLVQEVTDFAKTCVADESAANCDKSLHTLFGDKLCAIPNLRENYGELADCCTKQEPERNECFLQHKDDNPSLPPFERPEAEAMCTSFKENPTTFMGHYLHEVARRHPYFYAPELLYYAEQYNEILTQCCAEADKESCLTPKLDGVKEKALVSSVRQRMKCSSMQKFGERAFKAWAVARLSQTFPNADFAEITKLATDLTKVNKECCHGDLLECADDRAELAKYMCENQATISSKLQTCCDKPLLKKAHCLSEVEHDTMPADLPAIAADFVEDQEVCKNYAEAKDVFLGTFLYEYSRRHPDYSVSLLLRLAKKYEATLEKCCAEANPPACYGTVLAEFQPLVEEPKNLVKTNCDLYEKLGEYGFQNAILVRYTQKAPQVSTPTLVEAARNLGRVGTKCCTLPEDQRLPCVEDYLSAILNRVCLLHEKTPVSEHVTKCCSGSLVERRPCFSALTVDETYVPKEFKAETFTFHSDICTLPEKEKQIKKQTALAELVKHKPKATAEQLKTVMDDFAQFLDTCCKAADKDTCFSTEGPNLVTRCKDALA
Summary of the method: as §3

human serum albumin [8] = biological target: T1, human serum albumin; assay: as above
Summary of the method: as §3

rat serum albumin [9] = biological target: T3, rat serum albumin; assay: binding ELISA on coated albumin, pH 6.0, panel 'Rat SA Binding at pH 6.0'
Description: as §1, §2

equine serum albumin = equine serum albumin (equine, UniProt P35747 25-607); assay: binding ELISA on coated albumin, pH 7.4, panel 'Equine SA Binding at pH 7.4' (Table 6 gives NA for this pair)
Chain of equine serum albumin (P35747 25-607 limits assumed): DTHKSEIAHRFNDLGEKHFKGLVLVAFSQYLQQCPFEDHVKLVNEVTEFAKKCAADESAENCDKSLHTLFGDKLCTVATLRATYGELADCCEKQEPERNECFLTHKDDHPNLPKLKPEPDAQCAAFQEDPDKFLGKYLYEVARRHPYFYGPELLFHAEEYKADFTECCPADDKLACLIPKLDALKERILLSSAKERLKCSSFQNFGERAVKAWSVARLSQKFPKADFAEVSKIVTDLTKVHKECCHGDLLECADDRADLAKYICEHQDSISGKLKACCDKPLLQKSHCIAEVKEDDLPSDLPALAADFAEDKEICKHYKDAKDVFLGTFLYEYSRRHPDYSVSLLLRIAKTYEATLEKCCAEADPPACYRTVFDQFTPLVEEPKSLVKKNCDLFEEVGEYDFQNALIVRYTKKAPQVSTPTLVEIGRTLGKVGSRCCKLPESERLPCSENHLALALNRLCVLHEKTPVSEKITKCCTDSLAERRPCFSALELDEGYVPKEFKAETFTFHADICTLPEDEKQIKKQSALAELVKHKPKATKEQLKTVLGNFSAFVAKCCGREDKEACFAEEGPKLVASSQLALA
Description: as §1, §2

cynomolgus serum albumin [10] = biological target: T2, cynomolgus serum albumin; assay: BLI (Octet), biotinylated albumin on SA sensor, pH 7.4
Summary of the method: as §3

mouse serum albumin [11] = biological target: T5, mouse serum albumin; assay: as above
Summary of the method: as §3

human serum albumin [12] = biological target: T1, human serum albumin; assay: as above
Summary of the method: as §3

cynomolgus serum albumin [13] = biological target: T2, cynomolgus serum albumin; assay: SPR (Biacore T200), albumin amine-coupled to CM5, Affimer analyte, pH 7.4
Description: (§4) Affinities for mouse, human, and cynomolgus serum were also measured at pH 7.4 for four (4) AFFIMER® binders using surface plasmon resonance (SPR) (FIG. 5, Table 5). […] A concentration titration of AFFIMER® monomers was run as analyte at a flow rate of 30 μl/min or 60 μl/min. Fc2-1, Fc3-1 and Fc4-1 kinetic data was blank subtracted and fit to a 1:1 Langmuir binding model (BIAcore Evalution software; GE) to calculate KD values.

mouse serum albumin [14] = biological target: T5, mouse serum albumin; assay: as above
Description: as §4

human serum albumin [15] = biological target: T1, human serum albumin; assay: as above
Description: as §4

cynomolgus serum albumin [16] = biological target: T2, cynomolgus serum albumin; assay: Octet biolayer interferometry, biotinylated albumin on SA sensors, pH 7.4
Description: (§5) Biotinylated antigen was captured onto SA sensors at 1 μg/ml for 600 seconds in a buffer comprising PBS-T (0.01% Tween 20)+1% casein at either pH 6.0 or 7.4. Association was carried out for 300 seconds and dissociation for 600 seconds, and regeneration was performed using 10 mM glycine pH 1.5 (GE Healthcare) for 3×5 seconds. All steps were carried out at 1000 rpm and 25° C. Purified AFFIMER® polypeptide in two-fold serial dilutions was analyzed at a starting concentration of approximately 10× K_{D value}. Kinetics analyses were carried out using the Octet data analysis software, subtracting the reference sensor (loaded with antigen), aligning the Y-axis to baseline, and using inter-step correction to align association to dissociation. Savitzky-Golay filtering was applied and the data processed. Analysis of the data was carried out with a 1:1 model, global fit, Rₘₐₓ unlinked by sensor.

mouse serum albumin [17] = biological target: T5, mouse serum albumin; assay: as above
Description: as §5

human serum albumin [18] = biological target: T1, human serum albumin; assay: as above
Description: as §5

cynomolgus serum albumin [19] = biological target: T2, cynomolgus serum albumin; assay: Octet biolayer interferometry, biotinylated albumin on SA sensors, pH 6.0
Description: as §5

mouse serum albumin [20] = biological target: T5, mouse serum albumin; assay: as above
Description: as §5

human serum albumin [21] = biological target: T1, human serum albumin; assay: as above
Description: as §5

canine serum albumin = canine serum albumin (canine, UniProt P49822 25-608); assay: binding ELISA on coated albumin, pH 6.0, panel 'Canine SA Binding at pH 6.0'
Chain of canine serum albumin (P49822 25-608 limits assumed): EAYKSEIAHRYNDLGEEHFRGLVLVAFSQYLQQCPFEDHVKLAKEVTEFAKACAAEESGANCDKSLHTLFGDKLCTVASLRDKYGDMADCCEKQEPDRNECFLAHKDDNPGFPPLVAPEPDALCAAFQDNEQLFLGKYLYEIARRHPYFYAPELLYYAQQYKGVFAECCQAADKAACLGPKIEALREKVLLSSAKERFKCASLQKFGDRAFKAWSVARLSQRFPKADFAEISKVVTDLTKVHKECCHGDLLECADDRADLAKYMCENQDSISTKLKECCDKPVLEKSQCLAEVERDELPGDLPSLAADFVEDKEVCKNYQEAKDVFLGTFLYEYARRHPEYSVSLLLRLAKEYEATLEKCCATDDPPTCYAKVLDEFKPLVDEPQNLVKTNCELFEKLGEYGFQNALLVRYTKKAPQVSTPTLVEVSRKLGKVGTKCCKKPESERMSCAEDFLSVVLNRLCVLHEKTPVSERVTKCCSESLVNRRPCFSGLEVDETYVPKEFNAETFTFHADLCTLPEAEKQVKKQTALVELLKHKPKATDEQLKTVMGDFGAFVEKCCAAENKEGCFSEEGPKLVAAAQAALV
Description: as §1, §2

[22] = biological target: T6, mouse PD-L1-Fc tagged recombinant antigen (R&D systems) (mouse, UniProt Q9EP73 19-238); assay: SPR (Biacore), mouse PD-L1-Fc captured on Protein A chip, single cycle kinetics
T6 construct: Captured on a Protein A chip; not shown: Fc part of the bought protein, not described
T6 sequence (Q9EP73 19-238 limits assumed): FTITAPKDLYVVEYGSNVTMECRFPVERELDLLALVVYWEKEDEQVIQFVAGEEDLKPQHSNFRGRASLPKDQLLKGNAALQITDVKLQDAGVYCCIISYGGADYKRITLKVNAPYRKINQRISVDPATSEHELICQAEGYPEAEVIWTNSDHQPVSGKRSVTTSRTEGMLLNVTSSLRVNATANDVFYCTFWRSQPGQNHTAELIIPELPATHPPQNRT
Description: (§6) Aantigen was captured using a Protein A chip (GE Healthcare) and the AFFIMER® ILF format was run as an analyte using single cycle kinetics titrating from a maximum concentration of 1 nM, and regenerating using 10 mM glycine pH 1.5 (GE Healthcare).

mPD-L1 = biological target: T7, mPD-L1 (mouse, UniProt Q9EP73 19-238, limits assumed); assay: competition ELISA: mPD-L1 pre-incubated with the AFFIMER polypeptide and added to coated mPD-1; blocked ligand mPD-1
T7 construct: May be the same reagent as the mouse PD-L1-Fc of the Biacore run
T7 sequence (Q9EP73 19-238 limits assumed): as above
Description: (§7) Briefly, PD-1 was coated overnight on the plate at 1 μg/ml in carbonate buffer. Then plates were saturated using 5% Casein/PBS buffer. […] After saturation, the mix was added to the plates and incubated for 90 minutes. Plates were then washed and the detection polyclonal antibody, biotinylated anti-PD-L1, was added. After washing the plates, streptavidin-HRP was added for 30 minutes. After a final wash, development of the reaction was performed using TMB (Pierce) and the plates were read using a plate reader at 450 nm (FIG. 26C).

mouse serum albumin [23] = biological target: T5, mouse serum albumin; assay: binding ELISA on coated MSA, panel title 'Affimer binding to MSA, pH 7' (legend: pH 7.4)
Description: as §2, §7

[24] = biological target: T6, mouse PD-L1-Fc tagged recombinant …; assay: Biacore single cycle kinetics, mouse PD-L1-Fc captured on Protein A chip
Description: as §6

human serum albumin [25] = biological target: T1, human serum albumin; assay: Biacore, immobilised HSA, pH 7.4
Description: as §4

human serum albumin [26] = biological target: T1, human serum albumin; assay: SPR (Biacore), immobilised HSA, pH 7.4
Description: as §4

Chain of rabbit serum albumin (P49065 25-608 limits assumed): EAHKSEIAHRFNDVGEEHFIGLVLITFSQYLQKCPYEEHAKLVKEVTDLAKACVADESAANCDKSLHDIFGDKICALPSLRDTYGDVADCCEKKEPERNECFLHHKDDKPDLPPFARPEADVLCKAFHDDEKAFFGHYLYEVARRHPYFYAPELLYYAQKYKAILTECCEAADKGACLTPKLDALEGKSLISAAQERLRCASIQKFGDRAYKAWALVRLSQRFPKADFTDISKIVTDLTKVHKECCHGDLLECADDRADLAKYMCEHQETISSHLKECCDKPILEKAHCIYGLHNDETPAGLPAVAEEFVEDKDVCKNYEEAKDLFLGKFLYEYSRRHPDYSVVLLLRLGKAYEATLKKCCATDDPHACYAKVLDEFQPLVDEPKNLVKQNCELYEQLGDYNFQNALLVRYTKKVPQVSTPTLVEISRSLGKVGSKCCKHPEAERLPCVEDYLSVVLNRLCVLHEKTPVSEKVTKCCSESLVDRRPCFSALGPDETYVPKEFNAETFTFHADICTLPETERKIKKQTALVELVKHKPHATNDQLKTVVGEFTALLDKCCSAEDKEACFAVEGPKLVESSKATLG

B1: HSA-20 (designed binder)
chain: MIPRGLSEAKPATPEIQEIVDKVKPQLEEKTNETYGKLEAVQYKTQVLAGYWAAKWPGSTNYYIKVRAGDNKYMHLKVFNGPFPNTSYDLQADRVLTGYQVDKNKDDELTGFHHHHHH
Rabbit serum albumin
  binding result: binds
Human serum albumin [1]
  EC50 (read off the curve): ~7 nM
Cynomolgus serum albumin [2]
  EC50 (read off the curve): ~20 nM
Porcine serum albumin
  EC50: 894 nM
Cynomolgus serum albumin [3]
  EC50: 9.55 nM
Human serum albumin [4]
  EC50: 18.9 nM
Rat serum albumin [5]
  EC50: 16.1 nM
Recombinant FcRn
  binding result: no binding
Cynomolgus serum albumin [6]
  Kd: 133 nM
Mouse serum albumin [7]
  Kd: 511 nM
Human serum albumin [8]
  Kd: 23.4 nM
Rat serum albumin [9]
  EC50 (read off the curve): ~1 nM
Equine serum albumin
  binding result: binds
Cynomolgus serum albumin [10]
  Kd: 213 nM
Mouse serum albumin [11]
  Kd: 622 nM
Human serum albumin [12]
  Kd: 40.5 nM
Cynomolgus serum albumin [13]
  Kd: 419 nM
  koff: 0.0199 s⁻¹
  kon: 47600 M⁻¹ s⁻¹
Mouse serum albumin [14]
  Kd: 855 nM
  koff: 0.0981 s⁻¹
  kon: 115000 M⁻¹ s⁻¹
Human serum albumin [15]
  Kd: 350 nM
  koff: 0.0183 s⁻¹
  kon: 52200 M⁻¹ s⁻¹
Cynomolgus serum albumin [16]
  koff: 0.0148 s⁻¹
  kon: 69600 M⁻¹ s⁻¹
Mouse serum albumin [17]
  koff: 0.0509 s⁻¹
  kon: 81800 M⁻¹ s⁻¹
Human serum albumin [18]
  koff: 0.00517 s⁻¹
  kon: 128000 M⁻¹ s⁻¹
Cynomolgus serum albumin [19]
  koff: 0.00611 s⁻¹
  kon: 45700 M⁻¹ s⁻¹
Mouse serum albumin [20]
  koff: 0.0596 s⁻¹
  kon: 117000 M⁻¹ s⁻¹
Human serum albumin [21]
  koff: 0.00501 s⁻¹
  kon: 214000 M⁻¹ s⁻¹
Canine serum albumin
  EC50 (read off the curve): ~20 nM

B2: AVA04-182 XT20 (designed binder)
chain: MIPRGLSEAKPATPEIQEIVDKVKPQLEEKTNETYGKLEAVQYKTQVLAFALPEFEYMSTNYYIKVRAGDNKYMHLKVFNGPPMIRRKNEVADRVLTGYQVDKNKDDELTGFAEAAAKEAAAKEAAAKEAAAKEAAAKEAAAKMIPRGLSEAKPATPEIQEIVDKVKPQLEEKTNETYGKLEAVQYKTQVLAFALPEFEYMSTNYYIKVRAGDNKYMHLKVFNGPPMIRRKNEVADRVLTGYQVDKNKDDELTGFAEAAAKEAAAKEAAAKEAAAKEAAAKEAAAKMIPRGLSEAKPATPEIQEIVDKVKPQLEEKTNETYGKLEAVQYKTQVLANFFQRRWPGSTNYYIKVRAGDNKYMHLKVFNGPWKFRNTDRGADRVLTGYQVDKNKDDELTGFHHHHHH
[22]
  Kd: 0.0906 nM
mPD-L1
  IC50: 135 nM
Mouse serum albumin [23]
  binding result: binds
[24]
  koff: 0.0025 s⁻¹
  kon: 2.76e+07 M⁻¹ s⁻¹

B3: HSA-41 CQ (designed binder)
chain: MIPRGLSEAKPATPEIQEIVDKVKPQLEEKTNETYGKLEAVQYKTQVLANFFQRRWPGSTNYYIKVRAGDNKYMHLKVFNGPWKFRNTDRGADRVLTGYQVDKNKDDELTGFAAAGGRAEQKLISEEDLGCAENLYFQGGAAGHHHHHH
notes: Purified in the presence of 5 mM TCEP; also called HSA-41 free C-terminal cysteine format (CQ); HAS-41 CQ
Human serum albumin [25]
  Kd: 3.21 nM
  koff: 0.00663 s⁻¹
  kon: 2.07e+06 M⁻¹ s⁻¹
Human serum albumin [26]
  Kd: ~3 nM
